In the DeepSol protein solubility set:

Test: soluble on expression in E. coli; label from the status in PepcDB or PDB records

Sequence | soluble on expression in E. coli
MGSDKIHHHHHHMKEINLASVLVAKRREKGITQDELAAYIGVSKASVSKWETGQSYPDITFLPLLAAYFNISIDELMSYSPQMERSDIAKLYTRLAADFASRPFEDVIAECAALIKKYYSCFPLLVQLVKLYTNHFMLAGTQERQEALLNETVTLCERIQAESGDVQLAKEAVSYQALCSLALQRPQQVLDLLGEGIRPMLPEGMLIAQAYQVMGNIGKAKETLQTELYQYVMVAFQGLLNVLQMATDHFEKAEEAFLRASDLAQIFNMKQLNPNNVILLYALGARMYCANNSHAKAIELLGNYVDTCVGGFFPFELHGDAFFDLIDPWLKDCGAAAPRSEQVIKESMLRDVLMNPAFASLQDDPGYRRLVQKMERFIGR | not soluble
MLQINQMFSVQLSLGEQTWESEGSSIKKAQQAVANKALTESTLPKPVQKPPKSNVNNNPGSITPTVELNGLAMKRGEPAIYRPLDPKPFPNYRANYNFRGMYNQRYHCPVPKIFYVQLTVGNNEFFGEGKTRQAARHNAAMKALQALQNEPIPERSPQNGESGKDMDDDKDANKSEISLVFEIALKRNMPVSFEVIKESGPPHMKSFVTRVSVGEFSAEGEGNSKKLSKKRAATTVLQELKKLPPLPVVEKPKLFFKKRPKTIVKAGPEYGQGMNPISRLAQIQQAKKEKEPDYVLLSERGMPRRREFVMQVKVGNEVATGTGPNKKIAKKNAAEAMLLQLGYKASTNLQDQLEKTGENKGWSGPKPGFPEPTNNTPKGILHLSPDVYQEMEASRHKVISGTTLGYLSPKDMNQPSSSFFSISPTSNSSATIARELLMNGTSSTAEAIGLKGSSPTPPCSPVQPSKQLEYLARIQGFQAALSALKQFSEQGLDPIDGAMNIEKGSLEKQAKHLREKADNNQAPPGSIAQDCKKSNSAV | soluble
GHVETIKNTFLNPKSNKVLVVAHRGNWRSAPENSTAAIDSAIAMKVDIVEIDIQKTKDGQLILMHDNTLDRTTTGKGEIKNWTLADIKKLKLKDKDGKVTNYVVPTLEEALLTAKGKIMVNLDKAYDIFDDVYAILEKTETQNQVIMKGGQPIETVKREFGSYLDKVLYMPVIDLGNKEAEKIITDYLKELRPAAFEIIYSDPKNPLPPKIKQLLFKKSLIWYNTLWGSLAGNHDDNLALTDPEKSYGYLIEQLGARILQTDQPAYLLDYLRKKGWHN | soluble
SRSRPAGPALLLLLLFLGAAESVRRAQPPRRYTPDWPSLDSRPLPAWFDEAKFGVFIHWGVFSVPAWGSEWFWWHWQGEGRPQYQRFMRDNYPPGFSYADFGPQFTARFFHPEEWADLFQAAGAKYVVLTTKHHEGFTNWPSPVSWNWNSKDVGPHRDLVGELGTALRKRNIRYGLYHSLLEWFHPLYLLDKKNGFKTQHFVSAKTMPELYDLVNSYKPDLIWSDGEWECPDTYWNSTNFLSWLYNDSPVKDEVVVNDRWGQNCSCHHGGYYNCEDKFKPQSLPDHKWEMCTSIDKFSWGYRRDMALSDVTEESEIISELVQTVSLGGNYLLNIGPTKDGLIVPIFQERLLAVGKWLSINGEAIYASKPWRVQWEKNTTSVWYTSKGSAVYAIFLHWPENGVLNLESPITTSTTKITMLGIQGDLKWSTDPDKGLFISLPQLPPSAVPAEFAWTIKLTGVK | soluble
HHHHHHGILMMANRMILNETAWFGRGAVGALTDEVKRRGYQKALIVTDKTLVQCGVVAKVTDKMDAAGLAWAIYDGVVPNPTITVVKEGLGVFQNSGADYLIAIGGGSPQDTCKAIGIISNNPEFADVRSLEGLSPTNKPSVPILAIPTTAGTAAEVTINYVITDEEKRRKFVCVDPHDIPQVAFIDADMMDGMPPALKAATGVDALTHAIEGYITRGAWALTDALHIKAIEIIAGALRGSVAGDKDAGEEMALGQYVAGMGFSNVGLGLVHGMAHPLGAFYNTPHGVANAILLPHVMRYNADFTGEKYRDIARVMGVKVEGMSLEEARNAAVEAVFALNRDVGIPPHLRDVGVRKEDIPALAQAALDDVCTGGNPREATLEDIVELYHTAW | soluble
MSKAAKKKSSKKRSGSEAAQFDQKTIQEFKEAFGIMDQNKDGIIDKSDLKDLYASMGQIAPDSQIDAMIKEASGPINFTVFLTLFGERLTGTDPEATIVGAFAMFDKKDCGKIKEDDLIKILQNKRGEPLDEDEVKAMYKGKPPIEGGEVDYKAFAHLITTGAQDELASA | not soluble
RSTMKYIRTLSAEIGILEGGNLDYRITVTGSDEMAVLAKGLDSMRESIRDKISQEAELIRLNQSMITGLSHDLRTPLTALLIYTEILKNEIDADRKQMQKWVLKIDEKAHQIKDMADCILNYSLLKKAAGPTALRQEPFRSVFYDSLSELCVCLEQKGFEVRPSLAWEDREICADSKYITRILDNICSNIIKYASCGDPIRIESFYQTDGCGLVFENKKSANQTQAESTGIGVRNIREMMEEMGGCCEAEETSEDYRIRLTFACSPAV | not soluble
MISVMQQMINNDSPEDSKESITSVQQTPFFWPSAAAAIPSIQGESRSERESETGSSPQLAPSSTGMVMPGTAGMYGFGPSRMPTANEFGMMMNPVYTDFYQNPLASTDITIPTTAGSSAATTPNAAMHLPWAISHDGKKKRQPYKKDQISRLEYEYSVNQYLTNKRRSELSAQLMLDEKQVKVWFQNRRMKDKKLRQRHSGPFPHGAPVTPCIERLIN | not soluble
MGSDKIHHHHHHMRSDVIKKGLERVPHRSLLKALGITDDEMRRPFIGIVSSWNEIIPGHVHLDKVVEAVKAGVRMAGGVPFVFPTIGICDGIAMDHRGMKFSLPSRELIADSIEIVASGFPFDGLVFVPNCDKITPGMMMAMGRLNIPSVLISGGPMLAGRYNGRDIDLITVFEAVGGYKVGKVDEETLKAIEDLACPGAGSCAGLFTANTMNSLAEALGIAPRGNGTVPAVHAKRLRMAKEAGMLVVELVKRDVKPRDIVTLDSFMNAVMVDLATGGSTNTVLHLKAIAESFGIDFDIKLFDELSRKIPHICNISPVGPYHIQDLDDAGGIYAVMKRLQENGLLKEDVMTIYLRKIGDLVREAKILNEDVIRPFDNPYHKEGGLGILFGNLAPEGAVAKLSGVPEKMMHHVGPAVVFEDGEEATKAILSGKIKKGDVVVIRYEGPKGGPGMREMLSPTSAIVGMGLAEDVALITDGRFSGGSHGAVIGHVSPEAAEGGPIGIVKDGDLIEIDFEKRTLNLLISDEEFERRMKEFTPLVKEVDSDYLRRYAFFVQSASKGAIFRKP | not soluble
MSKTVLILGAGVGGLTTADTLRQLLPPEDRIILVDRSFDGTLGLSLLWVLRGWRRPDDVRVRPTAASLPGVEMVTATVAHIDIAAQVVHTDNSVIGYDALVIALGAALNTDAVPGLSDALDADVAGQFYTLDGAAELRAKVEALEHGRIAVAIAGVPFKCPAAPFEAAFLIAAQLGDRYATGTVQIDTFTPDPLPMPVAGPEVGEALVSMLKDHGVGFHPRKALARVDEAARTMHFGDGTSEPFDLLAVVPPHVPSAAARSAGLSESGWIPVDPRTLSTSADNVWAIGDATVLTLPNGKPLPKAAVFAEAQAAVVAHGVARHLGYDVAERHFTGTGACYVETGDHQAAKGDGDFFAPSAPSVTLYPPSREFHEEKVAQELAWLTRWKTLEHHHHHH | not soluble
MVSLDKAVIARLRKGGEEFEVLVDPYLARDLKEGKEVNFEDLLAAEEVFKDAKKGERASVDELRKIFGTDDVFEIARKIILEGEVQITAEQRREMLEAKRKQIINFISRNTIDPRTNAPHPPSRIERALEEAKVHIDIFKSVEAQVKDIVKALKPILPLKFEEMEIAIKIPPEHTGRAISALYNFGGVTREEWQRDGSWICVMRIPSGMYGDLMDLLGKVAKGEALTKVLRRIG | not soluble
MAAKPILYSSWSSGCSSRVRTALALKKIDYEYQPVNLLNKQKEQEFHGNNPAEKVPILKINGLTLTESMAIIEYLDEIYPDPPLLPKEPELKARARAIAFHIASNIQPLQNKPIYLMLNEKEPGYGDFWCQHFISKGFKALEELLQMHSGDFCVGNQISIADICLPSIVYNAIEKYHVDMTPYPIITRISNKLAELPEFQVAHPNNQPDAPKN | not soluble
MGSDKIHHHHHHMITVSNVSVQFGKRVLFNDVNLKFTSGNCYGIIGANGAGKSTFLRTIYGDLDPTTGTIALGPGERLSVLSQDHFKWDAYTVMDTVMMGHTVLWDIMKQREVLYAKEDFTDEDGLKVSELEEKFAELDGWNAESDAAMLLSGLGIKEDKHYTLMGELSGKEKVRVMLAQALYGNPDNLLLDEPTNDLDMETVTWLEEYLSNFEHTVLVVSHDRHFLDSVCTHTVDIDYGKINMFAGNYSFWYESSQLALRQQQNQKAKAEEKKKELEEFIRRFSANVAKSKQTTSRKKMLEKLNVEEIKPSSRKYPGIIFTPEREPGNQILEVSGLSKKTEEGVVLFSDVNFNIEKGDKVVFLSRNPRAMTAFFEIINGNMKPDAGQFNWGVTITTAYLPLDNTDFFNTDLNLVDWLSQFGEGNEVYMKGFLGRMLFSGEEVLKKVSVLSGGEKMRCMIARMQLRNANCLILDTPTNHLDLESIQAFNNNLKTYKGNILFSSHDHEFIQTVANRIIELTPNGIIDKMMEYDEYITSDHIKELRAKMYGDK | not soluble
MEGIDHLADERNKAEFDVEDMKIVWAGSRHAFEVSDRIARLVASDPVFEKSNRARLSRKELFKSTLRKCAHAFKRIIELRLNEEEAGRLRHFIDQPAYVDLHWGMFVPAIKGQGTEEQQKKWLSLANKMQIIGCYAQTELGHGSNVQGLETTATLDPKTDEFVIHTPTQTASKWWPGGLGKVSTHAVVYARLITNGKDYGIHGFIVQLRSLEDHSPLPNITVGDIGTKMGNGAYNSMDNGFLMFDHVRIPRDQMLMRLSKVTREGEYVPSDVPKQLVYGTMVYVRQTIVADASNALSRAVCIATRYSAVRRQFGAHNGGIETQVIDYKTQQNRLFPLLASAYAFRFVGEWLKWLYTDVTERLAASDFATLPEAHACTAGLKSLTTTATADGIEECRKLCGGHGYLWCSGLPELFAVYVPACTYEGDNVVLQLQVARFLMKTVAQLGSGKVPVGTTAYMGRAAHLLQCRSGVQKAEDWLNPDVVLEAFEARALRMAVTCAKNLSKFENQEQGFQELLADLVEAAIAHCQLIVVSKFIAKLEQDIGGKGVKKQLNNLCYIYALYLLHKHLGDFLSTNCITPKQASLANDQLRSLYTQVRPNAVALVDAFNYTDHYLNSVLGRYDGNVYPKLFEEALKDPLNDSVVPDGYQEYLRPVLQQQL | soluble
MGSDKIHHHHHHMTTATQSSAPGVNVDQAEVEKFSALAARWWDPESEFKPLHAINPLRLGWIQETAGSLSGKRVLDMGCGGGILSESMAVAGAQVTGIDLAEKSLKIARLHGLESGVKVDYRAVPVEELAAEQPGQYDVVTCMEMLEHVPDPASVVRACAALAKPGGWVFFSTLNRNPKSFLFAIVGAEYVLRLLPRGTHSYDSFIKPSELATSARQAGLEPTGMRGMEYNPITQVYSLSANTSVNYLMSTRK | not soluble
MENVTESKELERLKRIDRMKTEFIANISHELRTPLTAIKAYAETIYNSLGELDLSTLKEFLEVIIDQSNHLENLLNELLDFSRLERKSLQINREKVDLCDLVESAVNAIKEFASSHNVNVLFESNVPCPVEAYIDPTRIRQVLLNLLNNGVKYSKKDAPDKYVKVILDEKDGGVLIIVEDNGIGIPDHAKDRIFEQFYRVDSSLTYEVPGTGLGLAITKEIVELHGGRIWVESEVGKGSRFFVWIPKDRAGEDNRQDN | soluble
MGSDKIHHHHHHMEKTMDRIYKIGGHCFALPDERLMEAVDGISGFKPFVWQPDLVSAKDVYEGAWLPDFTVWEGNGWGFPAFQRKSYGFGYEDVTGTFGVSGDSFLLELAPQGEPSLYLRTMGGTGRGICLYGNYSPRLLRFALWMGYGLMTVRKDTVALHGSCIVYKGKAVLFLGESGTGKSTHTRLWRENIAGSKLLNDDSPIVRYEEGGVWVYGSPWSGKTPCYKAERYPLAGCVRLSQAPYNKIRRLNTLQAYAALHPSAPPAFAYEEELYCGVCSLLEKMVSSIPVYHLECLPDAEAVKLVCRTLYGDGYEADSE | not soluble
